The subject of data set [1] is HeLa Kyoto. As to the kind of experiment: solubility in G1/S (NP-40 vs SDS abundance) (log2 ratio); higher = more soluble. The settings on record: cell cycle stage: G1/S.
The test system of data set [2] is HeLa Kyoto. As to the kind of experiment: solubility change mitosis vs G1/S (difference of NP-40 vs SDS log2 ratios) (log2 ratio difference); higher = more soluble in mitosis.
The test system of data set [3] is HeLa Kyoto. As to the kind of experiment: thermal stability score vs G1/S (z-score of summed log2 fold changes over temperatures); higher = more thermally stable than in G1/S.
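Wherever solubility change mitosis vs G1/S (difference of NP-40 vs SDS log2 ratios) is given: synchronized HeLa Kyoto cells (double thymidine block for G1/S, nocodazole release for mitosis), protein amounts in NP-40 versus SDS lysates quantified by mass spectrometry, three biological replicates.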
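Wherever solubility in G1/S (NP-40 vs SDS abundance) is given: HeLa Kyoto cells arrested at G1/S by double thymidine block, proteins quantified by TMT10plex mass spectrometry in mild NP-40 versus SDS extracts, three biological replicates.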
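Wherever thermal stability score vs G1/S (z-score of summed log2 fold changes over temperatures) is given: synchronized HeLa Kyoto cells, proteins quantified by TMT10plex mass spectrometry, three biological replicates, mitosis taken 0.5 h after nocodazole release, G1/S directly after double thymidine block.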

Chain of EPB41L5 (chain, as listed by the source): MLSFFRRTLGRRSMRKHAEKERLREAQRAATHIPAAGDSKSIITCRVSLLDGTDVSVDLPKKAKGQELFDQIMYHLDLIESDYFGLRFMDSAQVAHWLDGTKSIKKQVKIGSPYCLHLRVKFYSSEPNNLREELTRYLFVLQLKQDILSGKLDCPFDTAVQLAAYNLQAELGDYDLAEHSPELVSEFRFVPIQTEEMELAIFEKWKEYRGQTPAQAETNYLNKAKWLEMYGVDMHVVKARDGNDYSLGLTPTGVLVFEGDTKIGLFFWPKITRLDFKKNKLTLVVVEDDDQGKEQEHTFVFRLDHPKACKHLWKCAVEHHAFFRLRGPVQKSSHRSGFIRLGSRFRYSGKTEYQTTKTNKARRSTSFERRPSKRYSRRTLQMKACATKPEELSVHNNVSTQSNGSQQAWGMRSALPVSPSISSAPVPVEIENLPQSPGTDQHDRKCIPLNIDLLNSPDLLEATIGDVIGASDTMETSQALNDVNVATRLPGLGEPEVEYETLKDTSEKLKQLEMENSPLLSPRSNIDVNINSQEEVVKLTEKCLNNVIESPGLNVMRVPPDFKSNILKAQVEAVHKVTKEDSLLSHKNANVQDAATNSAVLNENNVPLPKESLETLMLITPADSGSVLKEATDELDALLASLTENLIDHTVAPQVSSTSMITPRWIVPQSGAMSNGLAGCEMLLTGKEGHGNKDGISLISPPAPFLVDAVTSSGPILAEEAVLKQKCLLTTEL
Chain of ARNTL (chain, as listed by the source): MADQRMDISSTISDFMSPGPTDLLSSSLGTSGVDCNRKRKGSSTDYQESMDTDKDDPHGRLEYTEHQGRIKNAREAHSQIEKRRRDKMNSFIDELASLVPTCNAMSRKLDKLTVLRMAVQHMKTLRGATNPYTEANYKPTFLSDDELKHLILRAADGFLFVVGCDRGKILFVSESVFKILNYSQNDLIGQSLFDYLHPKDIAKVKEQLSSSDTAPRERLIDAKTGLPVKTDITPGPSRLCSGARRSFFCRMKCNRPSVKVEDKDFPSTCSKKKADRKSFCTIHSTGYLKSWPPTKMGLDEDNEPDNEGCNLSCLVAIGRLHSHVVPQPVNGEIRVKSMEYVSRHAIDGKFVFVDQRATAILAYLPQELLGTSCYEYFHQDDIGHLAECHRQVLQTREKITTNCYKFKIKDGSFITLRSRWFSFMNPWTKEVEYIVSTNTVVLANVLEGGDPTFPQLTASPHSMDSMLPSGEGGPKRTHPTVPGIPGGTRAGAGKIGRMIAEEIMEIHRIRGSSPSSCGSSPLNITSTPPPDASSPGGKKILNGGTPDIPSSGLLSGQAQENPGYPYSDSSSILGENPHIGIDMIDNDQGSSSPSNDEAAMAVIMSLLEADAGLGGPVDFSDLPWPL
Chain of CLK4 (chain, as listed by the source): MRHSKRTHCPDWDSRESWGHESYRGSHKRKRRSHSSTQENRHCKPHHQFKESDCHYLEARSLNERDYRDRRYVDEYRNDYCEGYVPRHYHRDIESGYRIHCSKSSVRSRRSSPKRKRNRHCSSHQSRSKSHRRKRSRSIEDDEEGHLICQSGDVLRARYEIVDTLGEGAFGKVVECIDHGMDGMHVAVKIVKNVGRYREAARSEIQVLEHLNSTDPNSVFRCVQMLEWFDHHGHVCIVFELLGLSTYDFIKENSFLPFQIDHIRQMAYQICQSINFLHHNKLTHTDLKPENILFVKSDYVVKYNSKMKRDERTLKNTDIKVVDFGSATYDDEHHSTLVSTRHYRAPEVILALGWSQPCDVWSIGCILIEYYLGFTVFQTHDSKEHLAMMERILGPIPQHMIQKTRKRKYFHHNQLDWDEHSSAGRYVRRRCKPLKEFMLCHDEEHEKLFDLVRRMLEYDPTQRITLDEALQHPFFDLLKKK
Chain of ISG20 (chain, as listed by the source): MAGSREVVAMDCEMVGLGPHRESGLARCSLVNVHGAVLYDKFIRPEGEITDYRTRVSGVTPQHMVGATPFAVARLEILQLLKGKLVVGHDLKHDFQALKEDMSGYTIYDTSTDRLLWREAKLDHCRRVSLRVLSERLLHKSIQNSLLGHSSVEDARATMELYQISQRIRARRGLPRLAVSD

Take ANKRD11: the “solubility in G1/S (log2)” value in data set [1] was -0.497. Moreover, the “solubility change mitosis (log2)” value in data set [2] is 0.268.

Take ARHGEF17: the “solubility in G1/S (log2)” value in data set [1] is -0.434. Besides, the “solubility change mitosis (log2)” value in data set [2] turned out to be 0.166.

With ARNTL, the “solubility in G1/S (log2)” value in data set [1] is -0.0786. Further, the “solubility change mitosis (log2)” value in data set [2] was -0.179.

Consider BRCA1, for which the “solubility in G1/S (log2)” value in data set [1] is -0.318. Further, in data set [2], the “solubility change mitosis (log2)” value turned out to be 0.246.

As to CAPN15, the “solubility in G1/S (log2)” value in data set [1] was -0.427. Moreover, the “solubility change mitosis (log2)” value in data set [2] was -0.0119.

CEP192: the “solubility in G1/S (log2)” value in data set [1] was -0.295. For the same substance, the “solubility change mitosis (log2)” value in data set [2] is -0.137.

CEP350: in data set [1], the “solubility in G1/S (log2)” value came to 0.00287. Besides, the “solubility change mitosis (log2)” value in data set [2] worked out at 0.0106.

Regarding CHD1, the “solubility in G1/S (log2)” value in data set [1] is -2.28. Also, in data set [2], the “solubility change mitosis (log2)” value was 0.383.

On to CLIC3, for which the “solubility in G1/S (log2)” value in data set [1] came out at 0.369. Further, the “solubility change mitosis (log2)” value in data set [2] was -0.00439.

With CLK4, in data set [1], the “solubility in G1/S (log2)” value is -1.44. Further, in data set [2], the “solubility change mitosis (log2)” value was determined as 0.508.

In the case of EPB41L5, the “solubility in G1/S (log2)” value in data set [1] was -0.503. Further, the “solubility change mitosis (log2)” value in data set [2] worked out at 0.268.

Regarding EVPL, in data set [1], the “solubility in G1/S (log2)” value was -0.382. Also, the “solubility change mitosis (log2)” value in data set [2] amounted to 0.319.

Take FAM208B: the “solubility in G1/S (log2)” value in data set [1] is -0.671. Further, in data set [2], the “solubility change mitosis (log2)” value amounted to 0.423.

In the case of ICE1, the “solubility in G1/S (log2)” value in data set [1] was -0.864. In addition, the “solubility change mitosis (log2)” value in data set [2] worked out at 0.51.

Turning to ISG20, the “solubility in G1/S (log2)” value in data set [1] is 0.28. Moreover, the “solubility change mitosis (log2)” value in data set [2] is -0.182.

On to KIAA0368, for which the “solubility in G1/S (log2)” value in data set [1] was 0.0203. Moreover, in data set [2], the “solubility change mitosis (log2)” value was -0.156.

As for KMT2C, the “solubility in G1/S (log2)” value in data set [1] turned out to be 0.137. Also, the “solubility change mitosis (log2)” value in data set [2] is -0.0115.

For the substance “MAAAAAETPEVLRECGCKGIRTCLICERQRGSDPPWELPPAKTYRFIYCSDTGWAVGTEESDFEGWAFPFPGVMLIEDFVTREEEAELVRLMDRDPWKLSQSGRRKQDYGPKVNFRKQKLKTEGFCGLPSFSREVVRRMGLYPGLEGFRPVEQCNLDYCPERGSAIDPHLDDAWLWGERLVSLNLLSPTVLSMCREAPGSLLLCSAPSAAPEALVDSVIAPSRSVLCQEVEVAIPLPARSLLVLTGAARHQWKHAIHRRHIEARRVCVTFRELSAEFGPGGRQQELGQELLRIALSFQGRPV [ALKBH4]”, in data set [1], the “solubility in G1/S (log2)” value was 0.184. Also, the “solubility change mitosis (log2)” value in data set [2] was -0.0312.

In the case of “MAAALPRTLGELQLYRILQKANLLSYFDAFIQQGGDDVQQLCEAGEEEFLEIMALVGMASKPLHVRRLQKALRDWVTNPGLFNQPLTSLPVSSIPIYKLPEGSPTWLGISCSSYERSSNAREPHLKIPKCAATTCVQSLGQGKSDVVGSLALQSVGESRLWQGHHATESEHSLSPADLGSPASPKESSEALDAAAALSVAECVERMAPTLPKSDLNEVKELLKTNKKLAKMIGHIFEMNDDDPHKEEEIRKYSAIYGRFDSKRKDGKHLTLHELTVNEAAAQLCVKDNALLTRRDELFALARQISREVTYKYTYRTTKSKCGERDELSPKRIKVEDGFPDFQDSVQTLFQQARAKSEELAALSSQQPEKVMAKQMEFLCNQAGYERLQHAERRLSAGLYRQSSEEHSPNGLTSDNSDGQGERPLNLRMPNLQNRQPHHFVVDGELSRLYPSEAKSHSSESLGILKDYPHSAFTLEKKVIKTEPEDSR [NAB1]”, the “solubility in G1/S (log2)” value in data set [1] was 0.187. In addition, in data set [2], the “solubility change mitosis (log2)” value came to 0.105.

As for “MAGRVPSLLVLLVFPSSCLAFRSPLSVFKRFKETTRPFSNECLGTTRPVVPIDSSDFALDIRMPGVTPKQSDTYFCMSMRIPVDEEAFVIDFKPRASMDTVHHMLLFGCNMPSSTGSYWFCDEGTCTDKANILYAWARNAPPTRLPKGVGFRVGGETGSKYFVLQVHYGDISAFRDNNKDCSGVSLHLTRLPQPLIAGMYLMMSVDTVIPAGEKVVNSDISCHYKNYPMHVFAYRVHTHHLGKVVSGYRVRNGQWTLIGRQSPQLPQAFYPVGHPVDVSFGDLLAARCVFTGEGRTEATHIGGTSSDEMCNLYIMYYMEAKHAVSFMTCTQNVAPDMFRTIPPEANIPIPVKSDMVMMHEHHKETEYKDKIPLLQQPKREEEEVLDQGDFYSLLSKLLGEREDVVHVHKYNPTEKAESESDLVAEIANVVQKKDLGRSDAREGAEHERGNAILVRDRIHKFHRLVSTLRPPESRVFSLQQPPPGEGTWEPEHTGDFHMEEALDWPGVYLLPGQVSGVALDPKNNLVIFHRGDHVWDGNSFDSKFVYQQIGLGPIEEDTILVIDPNNAAVLQSSGKNLFYLPHGLSIDKDGNYWVTDVALHQVFKLDPNNKEGPVLILGRSMQPGSDQNHFCQPTDVAVDPGTGAIYVSDGYCNSRIVQFSPSGKFITQWGEESSGSSPLPGQFTVPHSLALVPLLGQLCVADRENGRIQCFKTDTKEFVREIKHSSFGRNVFAISYIPGLLFAVNGKPHFGDQEPVQGFVMNFSNGEIIDIFKPVRKHFDMPHDIVASEDGTVYIGDAHTNTVWKFTLTEKLEHRSVKKAGIEVQEIKEAEAVVETKMENKPTSSELQKMQEKQKLIKEPGSGVPVVLITTLLVIPVVVLLAIAIFIRWKKSRAFGDSEHKLETSSGRVLGRFRGKGSGGLNLGNFFASRKGYSRKGFDRLSTEGSDQEKEDDGSESEEEYSAPLPALAPSSS [PAM]”, the thermal stability score in data set [3] (cell cycle stage: early G1 (4.5 h after nocodazole release)) is -1.73; in data set [3] (cell cycle stage: mitosis) it was -2.21. Also, the “solubility change mitosis (log2)” value in data set [2] is -0.0982.

For METAP1, in data set [2], the “solubility change mitosis (log2)” value was 0.0188.

Take MIB1: the “solubility change mitosis (log2)” value in data set [2] came out at 0.06.

With MRPL10, in data set [2], the “solubility change mitosis (log2)” value is -0.0658.

For MRPL11, the “solubility change mitosis (log2)” value in data set [2] was 0.173.

Turning to MRPL14, the “solubility change mitosis (log2)” value in data set [2] was determined as 0.104.

With MRPL23, in data set [2], the “solubility change mitosis (log2)” value came to 0.185.

Regarding MRPL24, the “solubility change mitosis (log2)” value in data set [2] came to 0.022.

As for MRPL27, the “solubility change mitosis (log2)” value in data set [2] turned out to be 0.243.

Take MRPL37: the “solubility change mitosis (log2)” value in data set [2] is -0.0819.

With MRPL39, the “solubility change mitosis (log2)” value in data set [2] was -0.14.

As to MRPL45, the “solubility change mitosis (log2)” value in data set [2] is -0.0934.
